≈ marks a conversion by molar mass, not a printed value. Like-named read-outs stand apart in the source and are kept apart here. Where a SMILES comes first, the peptide text is derived from it. The star is where a group is joined. NEt(2-(20S-CPT-7-yl)ethyl) = CCN(CCc1c2c(nc3ccccc13)-c1cc3c(c(=O)n1C2)COC(=O)[C@]3(O)CC)*; X1 = CC[C@@]1(O)C(=O)OCc2c1cc1n(c2=O)Cc2c-1nc1ccccc1c2CCN(C1CCC1)*; X3 = CC[C@@]1(O)C(=O)OCc2c1cc1n(c2=O)Cc2c-1nc1ccccc1c2CCN(C1CC1)*; X7 = CC[C@@]1(O)C(=O)OCc2c1cc1n(c2=O)Cc2c-1nc1ccccc1c2CCN(C)*; Propanoyl(3-maleimido) = O=C1C=CC(=O)N1CCC(=O)*; PEG6 = NCCOCCOCCOCCOCCOCCOCCC(=O)O
Key:
[1] = tested on: A549 (non-small cell lung cancer); test: cells; type: cell-based; details: CCK8, 48 h; Table 1
Experimental: (§1) Different types of cells were cultured with complete media (RPMI1640 (DMEM high sugar medium)+10% fetal bovine serum+1XP/S+sodium pyruvate 1 mM solution) in an incubator at 37° C. and 5% CO2 until the cells grew to a sufficient number, and the cells were collected, centrifuged at 1,000 g for 5 min, resuspended with an appropriate volume of a 10% RMPI1640 (DMEM high sugar medium) medium and counted. In a 96-well culture plate, 100 μL of cell culture fluid containing different concentrations of drugs was added, control wells (0.1% DMSO) with only corresponding drug solvents without drugs, as well as blank wells (Blank) with only the medium but without cells were set, and three parallel wells were set in each group. After that, the cells after cell counting were inoculated onto 96-well culture plates, with 100 μL of cell suspension per well, and an inoculation concentration of the cells was 5,000 cells (100 μL)/well. The plates were then cultured in a CO2 (5%) incubator at 37° C. for 48 h. After 48 h, 10 μL of a cell proliferation staining reagent (CCK8) was added to each well, the plates were incubated in a cell incubator for around 2 h, and an absorbance at 450 nm was detected.
(§2) Cell survival rates and median inhibitory concentrations of the drugs on the cells were calculated.
as §1, with “serum+1×P/S+sodium” for “serum+1XP/S+sodium”, “adjusted to an appropriate density.” for “counted.”
(§3) Cell survival rates and median inhibitory concentrations (IC50) of the drugs on the cells were calculated.

SJSA-1 (sarcoma tissue) = test: cells; type: cell-based; details: CCK8, 48 h; Table 1
Experimental: as §1, §2
as §1, with “serum+1×P/S+sodium” for “serum+1XP/S+sodium”, “adjusted to an appropriate density.” for “counted.”
as §3

[2] = tested on: SKBR3 (breast cancer tissue); test: cells; type: cell-based; details: CCK8, 48 h; Table 1
Experimental: as §1, §2
as §1, with “serum+1×P/S+sodium” for “serum+1XP/S+sodium”, “adjusted to an appropriate density.” for “counted.”
as §3

A2780 (ovarian cancer) = test: cells; type: cell-based; details: CCK8, 48 h; Table 1
Experimental: as §1, §2
as §1, with “serum+1×P/S+sodium” for “serum+1XP/S+sodium”, “adjusted to an appropriate density.” for “counted.”
as §3

[3] = Tumor homogenate activation efficiency, small cell lung cancer tissue (Example 28); type: in vitro ADME; details: pH 5.0, 37° C., 2 h; Table 5
Experimental: (§4) Buffer preparation: 50 mM PH buffer (MES), 250 mM NaCl, pH adjusted to 5.0 with 0.5 M of sodium hydroxide.
(§5) The polypeptide conjugate was prepared into a 1 mg/ml solution with pH 5.0 buffer, 100 μg of tumor tissue homogenate was added, (the tumor tissue homogenate was the homogenate of tumor tissues prepared with a Jingxin F6/10 handheld homogenizer), and the solution was placed at 37° C. for 2 h. The tumor tissue homogenate could effectively activate the polypeptide conjugate and release Belotecan, and the activation efficiencies of the drugs in tumor tissues were compared by high-performance liquid chromatography (HPLC) allowing determination of a decrease in the compounds and an increase in Belotecan:
(§6) Release percentage=peak area of Belotecan/total peak area of Belotecan and all other Belotecan-containing compounds

[4] = Tumor homogenate activation efficiency, ovarian cancer tissue (Examples 28, 37); type: in vitro ADME; details: pH 5.0, 37° C., 2 h; Table 5
Experimental: as §4, §5, §6
as §5, with “HPLC” for “high-performance liquid chromatography (HPLC)”, “Belotecan: […]” for “Belotecan:”

[5] = Tumor homogenate activation efficiency, sarcoma tissue (Examples 28, 37); type: in vitro ADME; details: pH 5.0, 37° C., 2 h; Table 5
Experimental: as §4, §5, §6
as §5, with “HPLC” for “high-performance liquid chromatography (HPLC)”, “Belotecan: […]” for “Belotecan:”

[6] = tested on: colo320 colorectal cancer tumor model
Experimental: Test objective: To investigate the antitumor efficacy of the above compounds in an animal tumor model of colo320 colorectal cancer.
(§7) Test drug: Polypeptide conjugate, Irinotecan, Belotecan and normal saline control group.
(§8) Test animals: 6-8 weeks old BALB/c mice, all female.
(§9) Passaging was performed every three days, and cells within 15 generations were used. 7.5×10^6 corresponding cells were injected into right chests of nude mice subcutaneously. After a volume of the tumors reached at least 120 mm^3, the mice were grouped randomly, with three mice in each group. Then treatment was started, and the day when the treatment was started was the first day. […] The control group was administered with normal saline. Administration was performed once a week for four weeks.

[7] = Tumor homogenate activation efficiency, breast cancer tissue (Examples 28, 37); type: in vitro ADME; details: pH 5.0, 37° C., 2 h; Table 5
Experimental: as §4, §5, §6
as §5, with “HPLC” for “high-performance liquid chromatography (HPLC)”, “Belotecan: […]” for “Belotecan:”

[8] = Homogenate activation efficiency, heart tissue (Examples 28, 37); type: in vitro ADME; details: pH 5.0, 37° C., 2 h; Table 5
[9] = tested on: sarcoma SJSA-1 tumor model; details: Table 2
Experimental: Test objective: To investigate the antitumor efficacy of the above compounds in an animal tumor model of sarcoma SJSA-1.
as §7, §8
as §9, with “SJSA-1 cells were purchased from ATCC and cultured in a DMEM medium containing 10% fetal bovine serum at 37° C. in 5% CO2. Passaging” for “Passaging”, “2×10^7” for “7.5×10^6”, “100” for “120”, “three” for “four”
as §9, with “SJSA-1 cells were purchased from ATCC and cultured in a DMEM medium containing 10% fetal bovine serum at 37° C. in 5% CO2. Passaging” for “Passaging”, “2×10^7” for “7.5×10^6”, “100” for “120”, “three” for “four”

[10] = Tumor homogenate activation efficiency, non-small cell lung cancer tissue (Examples 28, 37); type: in vitro ADME; details: pH 5.0, 37° C., 2 h; Table 5
Experimental: as §4, §5, §6
as §5, with “HPLC” for “high-performance liquid chromatography (HPLC)”, “Belotecan: […]” for “Belotecan:”

[11] = MTD determination in mice (Examples 27, 36, 44); type: in vivo; details: female, mouse, in vivo; mice, monitored for 14 d; Table 4
Text: Test animals: 6-8 weeks old mice, all female; mice were grouped randomly, with six mice in each group, administered with drugs at different concentration gradients separately and monitored for 14 d. A mouse was euthanized at a loss of 20% of its initial weight and deemed to have died of poisoning.

[12] = 15 mg/kg once a week for four weeks, Table 3
[13] = 45 mg/kg once a week for four weeks, Table 3
[14] = 15 mg/kg once a week for three weeks
[15] = 45 mg/kg once a week for three weeks
[16] = Table 13 (Example 42), dose 45 mg/kg, once a week for four weeks, BALB/c mice
[17] = Table 14 (Example 43), dose 45 mg/kg, once a week for four weeks, BALB/c mice

| Structure (SMILES) | IC50 A549 (non-small cell lung cancer) [1] [µg/mL] | IC50 SJSA-1 (sarcoma tissue) (SJSA-1 (sarcoma tissue)) [µg/mL] | IC50 SKBR3 (breast cancer tissue) [2] [µg/mL] | IC50 A2780 (ovarian cancer) (A2780 (ovarian cancer)) [µg/mL] | Percentage of release efficiency (%) Small cell lung cancer tissue (NCI-H841) [3] [%] | Percentage of release efficiency (%) Ovarian cancer tissue (A2780) [4] [%] | Percentage of release efficiency (%) Sarcoma tissue (SJSA1) [5] [%] | Mouse weight (%) [6, 12] | Mouse weight (%) [6, 13] | Percentage of release efficiency (%) Breast cancer tissue (SKBR3) [7] [%] | Percentage of release efficiency (%) Heart tissue [8] [%] | Mouse weight (%) [9, 14] | Mouse weight (%) [9, 15] | Percentage of release efficiency (%) Non-small cell lung cancer tissue (A549) [10] [%] | MTD at 14 d [11] [mg/kg] | colo320 (colorectal cancer cell) growth rate (%) [6, 13] [%] | colo320 (colorectal cancer cell) mean tumor volume (mm^3) [6, 13] [mm^3] | also measured |
| --- | --- | --- | --- | --- | --- | --- | --- | --- | --- | --- | --- | --- | --- | --- | --- | --- | --- | --- |
| CC[C@@]1(O)C(=O)OCc2c1cc1n(c2=O)Cc2c-1nc1ccccc1c2CCN(C(=O)CNC(=O)[C@H](Cc1ccccc1)NC(=O)CNC(=O)CNC(=O)CCOCCOCCOCCOCCOCCOCCNC(=O)CCN1C(=O)C=CC1=O)C1CC1 [MI-6PEG-GGFG-D6] ({Propanoyl(3-maleimido)-PEG6}-GGFG-X3) | 1.31 (≈ 1.06 µM) | 0.73 (≈ 0.59 µM) | 2.30 (≈ 1.86 µM) | 1.19 (≈ 0.963 µM) | 72.1 | 66.3 | 80.7 | +29% | +19% | 67.1 | 2.4 | +28% | +2% | 83.7 | – | – | – | – |
| CC[C@@]1(O)C(=O)OCc2c1cc1n(c2=O)Cc2c-1nc1ccccc1c2CCN(C)C(=O)CNC(=O)[C@H](Cc1ccccc1)NC(=O)CNC(=O)CNC(=O)CCOCCOCCOCCOCCOCCOCCNC(=O)CCN1C(=O)C=CC1=O [MI-6PEG-GGFG-D1] ({Propanoyl(3-maleimido)-PEG6}-GGFG-X7) | 10.78 (≈ 8.91 µM) | 11.79 (≈ 9.74 µM) | 16.49 (≈ 13.6 µM) | 6.84 (≈ 5.65 µM) | 66.3 | 67.2 | 81.5 | – | +19% | 74.8 | 1.7 | – | – | 71.7 | 250 | 605.35 | 671.3 | Mouse weight (%) [6, 16]: +19%; colo320 (colorectal cancer cell) growth rate (%) [6, 16]: 605.35%; colo320 (colorectal cancer cell) mean tumor volume (mm^3) [6, 16]: 671.3 mm^3 |
| CCN(CCc1c2c(nc3ccccc13)-c1cc3c(c(=O)n1C2)COC(=O)[C@]3(O)CC)C(=O)CNC(=O)[C@H](CC(N)=O)NC(=O)[C@H](C)NC(=O)CNC(=O)CCOCCOCCOCCOCCOCCOCCNC(=O)CCN1C(=O)C=CC1=O [MI-6PEG-GANG-D2] ({Propanoyl(3-maleimido)-PEG6}-GANG-{NEt(2-(20S-CPT-7-yl)ethyl)}) | – | – | – | – | 63.1 | 69.9 | 88.4 | – | +39% | 68.8 | 1.7 | – | +18% | 65.9 | 200 | 450.72 | 499.2 | Mouse weight (%) [6, 17]: +39%; colo320 (colorectal cancer cell) growth rate (%) [6, 17]: 450.72%; colo320 (colorectal cancer cell) mean tumor volume (mm^3) [6, 17]: 499.2 mm^3; SJSA-1 (sarcoma tissue) mean tumor volume (mm^3) [9, 15]: 1065.2 mm^3; SJSA-1 (sarcoma) Growth rate (%) [9, 15]: 918.28% |
| CC[C@@]1(O)C(=O)OCc2c1cc1n(c2=O)Cc2c-1nc1ccccc1c2CCN(C(=O)CNC(=O)[C@H](Cc1ccccc1)NC(=O)CNC(=O)CNC(=O)CCOCCOCCOCCOCCOCCOCCNC(=O)CCN1C(=O)C=CC1=O)C1CCC1 [MI-6PEG-GGFG-D7] ({Propanoyl(3-maleimido)-PEG6}-GGFG-X1) | 1.32 (≈ 1.06 µM) | 1.28 (≈ 1.02 µM) | 2.40 (≈ 1.92 µM) | 1.68 (≈ 1.34 µM) | 76.4 | 73.6 | 69.7 | +28% | +20% | 72.7 | 2.9 | +24% | +27% | 75.2 | – | – | – | – |

— patent US20250235545A1, “POLYPEPTIDE CONJUGATE AND USE THEREOF” (SHANGHAI CHIXI BIOMEDICAL TECHNOLOGY CO., LTD, priority 2024, published 2025)
